Source: patent publication US5683904

Molecular target: ubiquitin-methionine-dihydrofolate reductase (mouse) (UniProt P00375)

deubiquitination in vitro (extract of E. coli expressing Yuh1), share of the fusion deubiquitinated: < 50%
Substance: Yuh1 ubiquitin-specific protease (from UniProt P35127) (enzyme)
